Experimental findings from patent US20150233949A1, “DETECTION AND MODULATION OF CYTOCHROME C ACETYLATION” (President and Fellows of Harvard College, priority 2008, published 2015) are described below.

The subject of this experiment is cytochrome c. The experiment can be described thus: Tandem mass spectrometry of cytochrome c acetylation in transfected SH-SY5Y cells. It is filed as cell-based, mouse. The note with it: hSIRT3 cotransfected with cytochrome c in SH-SY5Y cells; FIG. 3. On the procedure:
SH-SY5Y cells were cultured in Dulbecco's Modified Eagle's Medium (DMEM) supplemented with 10% Fetal Calf Serum (FCS). SH-SY5Y cells were transfected with Lipofectamine 2000 (Invitrogen, Carlsbad, Calif.). Granule neuron cultures were prepared from cerebella of postnatal day 5 mouse pups. Neurons were placed on polyornithine-coated 96-well plates and grown in Basal Medium Eagle (BME) (Sigma, St. Louis, Mo.) supplemented with 10% calf serum (Hyclone Laboratories, Logan, Utah), 25 mM KCl, 2 mM glutamine, penicillin, and streptomycin. One day after cultures were prepared they were treated with 10 μM of the antimitotic agent cytosine-D-arabinofuranoside (Sigma, St. Louis, Mo.) to prevent the proliferation of non-neuronal cells.
A large-scale Flag-immunoprecipitation followed by elution with 3× Flag peptide was performed on cell extracts from 10×15 cm-plates of SH-SY5Y cells transfected with pcDNA-mouse cytochrome c-Flag+/−pcDNA-hSIRT3-HA. Purified proteins were separated by SDS-PAGE, and the band corresponding to cytochrome c was excised and analyzed by MS/MS.

B1: hSIRT3: human SIRT3 deacetylase expressed from transfected pcDNA-hSIRT3-HA vector (protein)
chain: MAFWGWRAAAALRLWGRVVERVEAGGGVGPFQACGCRLVLGGRDDVSAGLRGSHGARGEPLDPARPLQRPPRPEVPRAFRRQPRAAAPSFFFSSIKGGRRSISFSVGASSVVGSGGSSDKGKLSLQDVAELIRARACQRVVVMVGAGISTPSGIPDFRSPGSGLYSNLQQYDLPYPEAIFELPFFFHNPKPFFTLAKELYPGNYKPNVTHYFLRLLHDKGLLLRLYTQNIDGLERVSGIPASKLVEAHGTFASATCTVCQRPFPGEDIRADVMADRVPRCPVCTGVVKPDIVFFGEPLPQRFLLHVVDFPMADLLLILGTSLEVEPFASLTEAVRSSVPRLLINRDLVGPLAWHPRSRDVAQLGDVVHGVESLVELLGWTEEMRDLVQRETGKLDGPDK
modifications: left off: small tags and cut ends
notes: human SIRT3 deacetylase expressed from transfected pcDNA-hSIRT3-HA vector
In the case of B1, the “acetylation of residues K40 and K74 of cytochrome c” value was “no longer detected”.
